Columns and labels:
Conditions in all cases: mean of both orientations
Core_NINI-es_KEKK = biological target: T1, Core_NINI-es_KEKK; experiment: two-hybrid library CCmax;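 note: natural log of median RNA to DNA barcode read ratio; higher means stronger binding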
T1 chain: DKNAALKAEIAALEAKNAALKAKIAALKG

Core_INNN-es_KEKK = biological target: T2, Core_INNN-es_KEKK; experiment: two-hybrid library CCmax;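 note: natural log of median RNA to DNA barcode read ratio; higher means stronger binding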
T2 chain: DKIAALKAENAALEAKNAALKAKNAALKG

Core_NNNI-es_KKKE = biological target: T3, Core_NNNI-es_KKKE; experiment: two-hybrid library CCmax;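 note: natural log of median RNA to DNA barcode read ratio; higher means stronger binding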
T3 chain: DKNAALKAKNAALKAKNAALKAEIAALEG

Core_IINI-es_KKKE = biological target: T4, Core_IINI-es_KKKE; experiment: two-hybrid library CCmax;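 note: natural log of median RNA to DNA barcode read ratio; higher means stronger binding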
T4 chain: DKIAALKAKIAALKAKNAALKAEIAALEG

P4S-Cys = biological target: T5, P4S-Cys; experiment: two-hybrid library CCNG1;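 note: natural log of median RNA to DNA barcode read ratio; higher means stronger binding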
T5 chain: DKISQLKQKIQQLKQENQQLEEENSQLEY

P2p = biological target: T6, P2p; experiment: two-hybrid library CCmax;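 note: natural log of median RNA to DNA barcode read ratio; higher means stronger binding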
T6 chain: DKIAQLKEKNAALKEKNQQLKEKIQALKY

B1: Core_NINI-es_EKEE (peptide)
chain: DENAALEAKIAALKAENAALEAEIAALEG
Core_NINI-es_KEKK
  interaction score: 2.15

B2: Core_INNN-es_EKEE (peptide)
chain: DEIAALEAKNAALKAENAALEAENAALEG
Core_INNN-es_KEKK
  interaction score: 1.91

B3: Core_NNNI-es_EEEK (peptide)
chain: DENAALEAENAALEAENAALEAKIAALKG
Core_NNNI-es_KKKE
  interaction score: 2.16

B4: Core_IINI-es_EEEK (peptide)
chain: DEIAALEAEIAALEAENAALEAKIAALKG
Core_IINI-es_KKKE
  interaction score: 2.3

B5: Cys-P3S (peptide)
chain: DEIQQLEEEISQLEQKNSQLKEKNQQLKY
P4S-Cys
  interaction score: 1.92

B6: P1p (peptide)
chain: DEIQALEEENAQLEQENAALEEEIAQLEY
P2p
  interaction score: 1.64

From publication PMC10397247
